{"source": "patent US5593834", "test_system": "AluI restriction endonuclease", "assay": "cleavage_in_vitro", "key": {"[1]": {"conditions": "8 mM MgCl2, 2 mM CaCl2, 10 mM Tris pH 7.5"}}, "data": [{"sequence": "ATATATATAGCTATATATAT (double strand) [(AT)4 20-mer]", "values": [{"measurement": "binding signal (fold kcomp vs (AA)4)", "setting": "[1]", "result": 3}]}, {"sequence": "ATATAGCTATAT (double strand) [(AT)2 12-mer]", "values": [{"measurement": "relative cleavage rate constant (fold kcomp vs (AA)2)", "setting": "fastest substrate, 8 mM MgCl2, 2 mM CaCl2, 10 mM Tris pH 7.5, 16% glycerol", "result": 3.02}]}, {"sequence": "ATATATAGCTATATAT (double strand) [(AT)3 16-mer]", "values": [{"measurement": "binding signal (fold kcomp vs (AA)3)", "setting": "[1]", "result": 2.95}]}]}
